According to the supplement of paper PMC10567573:

B1: ZNF449 (parent)
chain: HTGERPYECTVCKKRFTRRSHLIG
B2: C22orf15 (parent)
chain: ITQSWQVSVRVQPRGRAHLLPNPY

Variants of: B1
Test: protein stability index of a GFP-peptide fusion (GPS, HEK-293T) (PSI 1-6); higher = more stable
Conditions: c terminus: a fixed tail appended
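Also: lentivirally expressed fusions sorted by FACS into six bins by GFP to DsRed ratio, PSI derived from sequencing read proportions per bin multiplied by bin number.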

Protein stability index of substitutions, site by site:
R15: Q 1.79; V 2.16; K 2.52; A 1.99; C 2.23
R18: Q 1.81; P 1.91; W 2.33; F 2.18; G 2.12; L 1.74; H 1.76; T 1.97; V 1.59; C 2.97; D 2.88; A 2.13
F16: T 2; G 2.82; A 2.1; C 2.42
S20: K 2.26; Y 3.34; E 2.53; I 1.57; P 2.31; G 2.47; M 2.21; D 2.46; N 2.69
I23: M 1.7; W 2.62; K 4.19; Y 2.42; R 3.41
G3: A 2.63; T 2.12; D 2.44; H 3.28; F 2.06; N 1.85; S 2.33; M 2.38; I 2.39; L 3.83; Y 1.9; R 1.73; V 1.82
H1: C 2.48; P 2.59; M 2.96; I 1.74; Y 2.98; E 2.6
E8: L 2.77; C 2.38; Y 2.15; P 1.94; F 1.84; A 1.77; D 2.72; I 2.74
H21: I 1.56; C 2.1; D 2.27; W 2.78; Q 1.82; Y 2.35
T2: E 2.94; S 1.83; R 2.12; A 2.85; C 1.42; Y 1.9
V11: M 1.91; H 2.99; E 3.06; W 2.6; L 2.08; S 2.58
T17: I 2.3; N 2.21; G 1.82; W 2.03; R 2.95
C9: Y 3.67; T 3.14; P 3.7; V 3.01; N 3.63; K 3.97; R 3.99
R5: G 2.24; M 2.24; W 2; Q 2.23; V 2.07
K13: F 2; M 1.62; D 2.91; A 1.63; G 1.52; R 2.31; E 2.42
K14: R 1.53; C 2.01; S 2.27; W 1.49
P6: V 3.36; D 2.52; E 2.34; H 2.64; T 2.58; W 2.38; K 2.02
T10: N 2.17; A 2.42; Q 1.36; M 2.51
Y7: E 2.88; K 2.44; G 2.01
E4: S 2.53; N 2.15; A 1.42; D 1.82
C12: I 3.31; W 1.86; F 3.01; P 3.06; H 3.73
L22: Q 2.58
G24: E 1.92; N 2.39; V 1.6; A 2.27
R19: K 2.54; W 2.52

Variants of: B2
Test: as above
Conditions: c terminus: a fixed tail appended

Protein stability index of substitutions, site by site:
W5: Y 1.84; M 1.61; L 3.62; R 2.21; D 2.32; I 4.28; N 2.86; T 1.48; C 2.25; K 3.36; H 2.57; A 1.86; S 2.69; P 2.56; E 2.97; Q 1.81; V 3.07; F 2.29
R14: F 1.78; E 2.73; H 2; A 3.37; D 1.87
V7: L 1.88; Y 1.86; S 2.12; K 1.81; M 2.46; Q 2.51; N 2.38; P 2.7; A 2.77; F 2.22; C 1.6; E 2.29; R 2.39; H 2.68; T 2.04; G 2.34; D 2.42; W 1.5
T2: C 3.3; Y 3.42; W 2.62; K 1.87; G 1.77; F 2.43; D 2.46; H 1.45; L 2.27; E 1.69; P 2.43; Q 2.53; M 3.15; A 1.43; S 1.77
R10: C 1; K 2.41; P 1.83; I 3.79; E 1.32; T 1.98; F 2.62; M 2.9; A 1.83; S 1.98; Y 2.12; D 2.05; Q 2.09; W 2.02; N 2.63; L 2.47; G 2.89; H 1.5
S8: R 2.73; M 2.55; C 1.12; A 1.27; F 2.21; Y 1.8; N 1.46; D 2.65; P 1.71; E 1.54; T 3.34; G 2.39; H 2.28
Q3: F 2.14; H 2.02; K 1.95; T 1.51; R 1.1; E 1.07; W 1.68; Y 4.26; S 3.25; N 1.85; D 1.47; A 3.08
S4: F 3.65; K 1.42; H 2.83; G 2.27; P 1.65; N 1.73; A 3.33; Q 1.87; R 2.99; Y 2.42; T 1.48
V11: S 1.95; Q 1.49; E 2.65; H 2.49; P 1.8; T 1.87; I 4.95; A 2.07; N 2.51; K 3.28; G 2.43; R 1.86; D 2.45; Y 1.68; F 1.69; M 3.05
Q6: T 1.77; F 4.73; I 2.74; A 1.09; P 3.07; N 1.73; E 1.92; Y 1.96; S 1.9; D 2.15
Q12: C 1.77; K 1.79; M 3.2; Y 2.25; S 2.13; W 2.49; T 1; H 2.27; P 1.72; E 2.61; A 1.16; F 3.49; G 3.64; D 2.27; N 2.98
V9: L 2.7; K 1.91; D 2.02; H 2.88; F 1.74; I 2.64; T 1.55; A 2.19; Q 2.44; E 2.26; M 1.34; P 1.81; S 1.91; N 2.45
P13: R 1.16; S 2.67; I 2.67; V 3.02; H 2.27; K 1.65; D 1.86; N 1.74; T 1.94; M 1.91; Y 2.01; G 1.64; Q 2.21; L 2.69
I1: G 1.92; K 2.18; A 2.73; V 1.41; N 2.24; Y 3.3; Q 1.31; H 2.61; S 1.78; P 1.64; M 1.26; T 1.9; R 1.68; C 4.55; F 2.74; D 2.12; L 1.5
